Measurements as given in article PMC7888707.

Key:
[1] = biological target: PECAM-1–GFP (wild type, stably expressed in HL-60 cells) (human) (UniProt P16284); assay: FRET or BRET; FLIM measurement of FRET between the GFP and RFP tags in HL-60 cells plated on poly-L-lysine-coated coverslips at 37°C for 5 min, fixed in 4% PFA (resting, not in TEM)
[2] = biological target: PECAM-1–GFP (wild type, stably expressed in HL-60 cells) (human) (UniProt P16284); assay: FRET or BRET; FLIM measurement of FRET between the GFP and RFP tags in dHL-60 cells perfused (1.5 dynes/cm2) over TNF-activated HUVEC monolayers, fixed in 4% PFA in mid-TEM; read at breached junctions
[3] = biological target: PECAM-1–GFP (wild type, stably expressed in HL-60 cells) (human) (UniProt P16284); assay: FRET or BRET; FLIM measurement of FRET between the GFP and RFP tags in dHL-60 cells perfused (1.5 dynes/cm2) over IL-1β-activated HUVEC monolayers, fixed in 4% PFA in mid-TEM; read at breached junctions

FRET efficiency [1]: 0.982% | FRET efficiency [2]: 5.39% | FRET efficiency [3]: 1.21%
Substance: L-selectin–RFP (wild type, stably expressed in HL-60 cells) (from UniProt P14151 39-372) (natural protein)
